Measurements published in a protein production outcome set (Wang et al. 2014).

Assay: label from the status in PepcDB records

With “MIPMFTVTLEDSGTLWKSLHSSSESEMTTLPPLPMTRPKLTALARQKLPCSSRKIPRSQLIKEKDDIDHYLEVNFKGLSKEEVAAYRNSYKKNICVDMLRDGYHKSFTELFALMERWDALREAARVRSLFWLQKPLEEQPDKLDYLYHYLTRAEDAERKESFEDVHNNLYALACYFNNSEDKWVRNHFYERCFKIAQLIKIDCGKKEAEAHMHMGLLYEEDGQLLEAAEHYEAFHQLTQGRIWKDETGRSLNLLACESLLRTYRFLSDKMLENKEYKQAIKILIKASEIAKEGSDKKMEAEASYYLGLAHLAAEEYETALTVLDTYCKISTDLDDDLSLGRGYEAIAKVLQSQGEMTEAIKYLKKFVKIARNNFQSLDLVRASTMLGDIYNEKGYYNKASECFQQAFDTTVELMSMPLMDETKVHYGIAKAHQMMLTVNNYIESADLTSLNYLLSWKESRGNIEPDPVTEEFRGSTVEAVSQNSERLEELSRFPGDQKNET” the protein production was “failed”.
With “MNLTFDYTKEPSRDVFCIDVKSFYASVECVERGLDPLKTMLVVMSNSENSGGLVLAASPMAKKVLGISNVTRKNEVPDHPNLIIVPPRMKLYMKKNQEINNLYKRFVSDEDHSVFSVDESFLDVTASLTYFKCDTAYKLAKIIQRVIYNHMGLYVTIGIGENPLLAKLALDNEAKNAPGFVAEWRYEDVPEKVWPISPLTEFCGIGNRMAARLKKLGIRSIYDLAHIEPYMLKERFGIMGLQLYAHSWGIDRSFLGQKAGRPTEKSFGNSQVLPKDYANKEQIKLVLKELSDQVASRLRMASCQTTCVSLFVGYSKGQTDKYGQTGWRRQMKVEPSNNTKVLTEHVLRLFEENYAPGVDVRNLGVSYGRLVWNKNLQLDLFSVPEEQIHETDMYFLIDKIRQKFGFKALIHASSLMEGATAISRASLVGGHAGGTVGLGTTK” the protein production was “failed”.
For “MRAGDGKIRVPADLDAVTATGEEDHSEIDGAAVDRIWRAARHWYRAGMHPAIQLCIRHHGRVVLNRAIGHGWGNAPTDEADAEKIPVTTDTPFCVYSAAKAITATVVHMLVERGHFALDDRVCEYLPSYTSHGKHRTTIRHVLTHSAGVPFPTGPRPDVRRADDHEYAVERLGELRPLYRPGLVHIYHALTWGPLMREIVYAATGKEIREILATEILDPLGFRWTNFGVAERDVPLVAPSHATGRQLPPVIAAVFRKAIGGTVHEIIPYTNTPFFLSTILPSSNTVSTANELSRFMEILRRGGELDGVRVLSPETLRGAVTECRRLRPDFATGLMPLRWGTGFMLGSAKYGPFGRNAPAAFGHLGLVNIAVWADPERALSGGLISSGKPGRDPEAGRYGALLNAITAEIPRASSG”, the protein production was “failed”.
For “MSLKKKIAVVTGATGGMGIEIVKDLSRDHIVYALGRNPEHLAALAEIEGVEPIESDIVKEVLEEGGVDKLKNLDHVDTLVHAAAVARDTTIEAGSVAEWHAHLDLNVIVPAELSRQLLPALRAASGCVIYINSGAGNGPHPGNTIYAASKHALRGLADAFRKEEANNGIRVSTVSPGPTNTPMLQGLMDSQGTNFRPEIYIEPKEIANAIRFVIDAGETTQITNVDVRPRIELADRKEGHHHHHH”, the protein production was “not failed”.
With “MMMLPEACVANILAFTSPADAFSSSEVSSVFRLAGDSDFVWEKFLPSHYKSLISQSTDHHRIFSSKKEIYRCLCDSLLIDNARKLFKINKFSGKISYILSARDISITYSDHASYCSWSNVSDSRFSESAELITTDRLEIKGKIQTTVLSPNTKYGAYLIMKVTNGAYGLDLVPAETSVKSKNGQNNKNTTYLCCLDEKKQQMKRLFYGNREERMAMTVEAVGGDGKRREPKARDDGWLEIELGEFVTREGEDDEVNMSLTEVKGYQLKGGIVIDGIEVRPIPLK” the protein production was “failed”.
In the case of “MGGDLRKCSFIKLEAHQNRVMTCVWCNKKGLLATSGNDGTIRVWNVTKKQYSLQQTCVFNRLEGDAEESLGSPSDPSFSPVSWSISGKYLAGALEKMVNIWQVNGGKGLVDIQPHWVSALAWPEEGPATTWSGESPELLLVGRMDGSLGLIEVVDVSTMHRRELEHCYRKDVSVTCIAWFSEDRPFAVGYFDGKLLMGTKEPLEKGGIVLIDAHKVKTIFFMLAFLFCLVFCVYVF”, the protein production is reported as “failed”.
In the case of “MTLNITSKQMDITPAIREHLEERLAKLGKWQTQLISPHFVLNKVPNGFSVEASIGTPLGNLLASATSDDMYKAINEVEEKLERQLNKLQHKSESRRADERLKDSFEN”, the protein production is reported as “not failed”.
For “MASGQFVNKLQEEVICPICLDILQKPVTIDCGHNFCLKCITQIGETSCGFFKCPLCKTSVRKNAIR”, the protein production was “not failed”.
For “MVAQLPEPIKIVRRAGDVRIHTFISAFTDDNIANATHIIEGRNKLVLVDGQFLVPYALQFRAYADSLGKEIDRIYLSHRHPDHWFGLGAAFSDIPIHALSETKEFLRQHGQDSLNDHWKLGNLAPKTLVIPEKTVRAGHEIIDGVKYVFDEVVDTEIDFLLTIGLPDVGVFIAQDLIYSGTHLYLTKYMEHWIGVLQGMLLSDYELFLPGHGFPADKNEVAKNIEYLSVAIEAAGHGLTNDAFKRFLLERFPERKCPGIFDIYIPRLFDNASEF”, the protein production was “failed”.
With “RSPPSNLALASETPDSLQVSWTPPLGRVLHYWLTYAPASGLGPEKSVSVPGARSHVTLPDLQAATKYRVLVSAIYAAGRSEAVSATGQTACP” the protein production was “not failed”.
In the case of “MRHDIRAPETFRRYCLPSRPRGCPLKTYVIGDVHGRADLLKALPSHIEENDPNGCGYRVIFLGDIIDRGPDSMKAMEMVVRELNQNPESRLILGNHEEFMLLFLDRPDKREIVFDHWMRNGGLAAAASYGLNVGGRYGRIEEAHESLLELLHRRQNHIDAMRRAASLINDGANVFVHAGLRPGVPFEQQTTKDLRTIRSGFLDNDFDFGAMVVHGHTVTSSGLPEIRRSRIALDTGAGAGGCLSMMMVDDDGARTFFQSGSAREVVKVELSQRPDEP”, the protein production is reported as “failed”.
With “MKISPLCPSCLLGRVYYEAKLVTDDEDLISQCVDESLKILAENYSSAPINAHLATRIHRRVYEILGVEDPYAEVKARANEVARQVLPLAKEIVEGSDDPFKTAVIVSIVGNNFDYGVQGHKVVEEEFRDFLKRKVQEGLKINDTERIKELSSGKVVYLTDNAGEIFFDTLLMKEIKRRCEKLTAVVRGRPIISDATIEDARLARVDKIADELLTNGKGAIGIIMDELPDETRKALEEADLIVAKGMANYECLSDGSLKPIAFLLTAKCEPVARDIGVNVGDMVAKVVE” the protein production was “not failed”.
In the case of “MKPNFKNIDIYAGFQPQNGMEWQKENGITADWKTPEHINVKPVYTKEDLEGMEHLNYVAGIPPYLRGPYSMMYTFRPWTIRQYAGFSTAEESNAFYRRNLASGQKGLSVAFDLPTHRGYDPDHERVVGDVGKAGVSICSLENMKVLFDGIPLNKMSVSMTMNGAVLPIMAFYINAGLEQGAKLEEMAGTIQNDILKEFMVRNTYIYPPAFSMKIISDIFEYTSQKMPKFNSISISGYHMQEAGATADIELAYTLADGLEYLRAGVAAGIDIDAFAPRLSFFWAIGMNHFMEIAKMRAARMLWAKIVKQFNPKNPKSLALRTHSQTSGWSLTEQDPFNNVGRTCIEAMAAALGHTQSLHTNALDEAIALPTDFSARIARNTQIYIQEETYVCKNVDPWGGSYYVESLTNELAHKAWEHIQEIESLGGMAKAIETGVPKMRIEEAAARTQARIDSGAQTIVGTNKYRLEKEDPIDILEVDNTAVRLEQIENLKRLKEGRNQAEVDKALAAITECVKTGKGNLLELAVEAAHVRATLGEISDACETIVGRYKAVIRTISGVYSSESKKDTDFARACELTEEFAKKEGRRPRIMIAKMGQDGHDRGAKVVATGYADCGFDVDMGPLFQTPAEAARDAVENDVHVVGVSSLAAGHKTLIPQIIEELKKLGREDILVIAGGVIPAQDYDFLYKAGVVAIFGPGTSVAKAAVQIMDILLDEEE”, the protein production is reported as “failed”.
For “MMDVARAKFLPHEQVTFQVADATTLPFENEAFDAVVCQFGVMFFDKDTAFREAYRTLGRGGRYLFSVWDSRRYNPFASLAFEVLKQFFPLNPPRFLEAPVSSFEIDPIKEALIQSGFERIVISVQGREHDILDVRTFARGLVFSPVIEEIRERGGVEPEDIIAALAEALKREYGSRPTRYPMQAILFEAEKP”, the protein production was “failed”.
In the case of “MAEKLLHTAESDAGIGSWVLHMESGRLEWSQAVHDIFGTDSATFDATEDAYFQRVHPDDRARVRRELDRHVLGDRPFDVEYRIVRPDGQVRELLERNHIQRQASGQVDHLWGTVIDMTEHKQLKRQLQLSQLAVEHCSEGIAIADEGLDWLYVNPALARMGGLTMADPSQLSGLFMAPGVEARLEREALRELLDASGAWQGELLLARRGAAPLPVLASATRLRDEDGRLLSVWVVSDISGMKESERRLHALAFFDGLTGLANRALFGERLRWHLQNEPAGGRLAILFLDLNGFKQVNDLLGHEAGDQVLREVARRLQAGCRPGELAARWGGDEFAVLLPGVADDAVLAARLRELREAARAERWGGGRWLRVSASLGAAVYPESAEDAERLIQLADRAMYRAKSEGGGQVWLHDGGGLRTLAGADCGA”, the protein production is reported as “failed”.
In the case of “MSLRRRFCAFLKGMQSPMIFDVKAPILGFETIHKMRLQKIDEIFLRLNSTEENSVVSFTLVNPFALRKYEFEVPTPLKILLELEGAKSVLVANIMVVQTPIELSTVNYLAPLIFNLDKQLMGQVVLDSNKYPHYHLRENILSHTHE”, the protein production is reported as “failed”.
In the case of “MADIPKSPTEPNKPVDTKLQVDPNTPVDPKPPVVEPKPPVVDPKPPVVDPKPPEPTHPTITVSPKTGDILVEWYAGNGKYYSSVFFNDFYTSQKELDENALNNLTNYYSKKEDWTLVSQLNTPSKSKSVAEHKLALDNVEQILTSGEYSNERALFYLRNQMNVLNESVTTQEELQRYLSENKKDYIKSVAEKVYQTATEEKREWSNTGDVASLEQALSKFYLVTSVFESVDPALV”, the protein production is reported as “failed”.
For “MEKNDIFVVIPAYNEEKMIKNTLINLKSHGYENIIVVDDGSRDNTSKIAISEEVIVCKHIINRGLGGALKTGLKCAVKYNPKVIVTFDADGQHDPEDIFKVSEPILEDSFDVVVGSRLIDENELKNMPLIKKIGNWGLNFITYLMGGRMVTDSQGGLRAFSYDAAEIVSKQLKSNRYEVSSEFIVLFKKNNLKFKEVPIKTIYTEYSMARGTNVITGFKILFKLLIQKLILEHHHHHH”, the protein production was “not failed”.
In the case of “MSLSKKTIYIAGLGLIGGSLALGIKRDHPDYEILGYNRSDYSRNIALERGIVDRATGDFKEFAPLADVIILAVPIKQTMAYLKELADLDLKDNVIITDAGSTKREIVEAAERYLTGKNVQFVGSHPMAGSHKSGAIAADVTLFENAYYIFTPTSLTKETTIPELKDILSGLKSRYVEIDAAEHDRVTSQISHFPHLLASGLMEQAADYAQAHEMTNHFAAGGFRDMTRIAESEPGMWASILMTNGPAVLDRIEDFKKRLDHVADLIKAEDESAIWEFFDNGRKKRKEMEIHKKGGVESAFDIFVDVPDREGHHHHHH”, the protein production is reported as “not failed”.
In the case of “MITIEISINLELIISFYLLFILGANNVANAIGTAYASRATTYRNLLILFSISVIIGSLFAKNVGSTVNSLSSDALTALIISALVMTLSTYKKVPISLHTVIICSLIGLNFNSSNLYVFGEILLSWILSPIIAVVIAYILYSAYEKIDISILKKITMIRYFLLISAAVVAFNLGSNDLPTVLGTFTTSQIIYIIGAIFLCLGAYLYGNRVSETLSMITNLSVSSAFIAQLSGGLAVTIFTALGMPVSTTQAIVGGILGVGLTKGIKTVRWKVLKNIIFWWVVAPIIALIIGFIINRMI”, the protein production is reported as “failed”.
With “MNIKLKRTLISLVAFSMTCLPFVGTGSSVKAASNDATINVAAKHQTIRGFGASSAWCGALSDTCMDTLYKNAGLDILRVRIAPNEGWNRGDYRAWADELSNAKKVRARGGIVFATPWTPPASMKTNNTTTGANKGSLKPSSYAAYAAYLKTFVKYMSDNGAPLYALSLQNEPDWAPDYDACTWTAQQFHDFLKQYGASLSSTIKIIMPESLGFNPAMSDPTLNDPTTAQYVSIIGGHLYGSPIRDYPLARNKGKDIWMTEHYLEGNDPGTCVKLAKEIHDCMTIGNMNAYVYWWISGDQNGLYNTRTNETYKKTYVMGQFSKFIGNGYSRVDATNSPQSNVYVSAYTGNNKVVIVAINQGTYPVNQSFNVQNSTVSNVSSWVSSGTLNMAKTNSNISAANGRFNASLPAQSVTTFVADLNSTNPTTDPTTNPTPGSTVTLNNGWYYIKNINAQKYLQVASNTGKAGQNVELGSGSGAAGQKWYLTNTGDGYVTLKSALGNYMLDVSYGENKDGSNIQIFNAYSGDAQKFSVKASSKDGQYFVSTKSSNGTKVLDDYNFGTADGTNVCQWTYGGNANQLWAFEPTNN” the protein production was “failed”.
